Measurements published in PMC9482650, “Quantitative fragmentomics allow affinity mapping of interactomes” (Nature Communications, 2022).

What was measured:
Assay in all cases: holdup assay
Set-up in all cases: key: below the threshold = too weak to quantify, mostly under pKd 3.1 to 4
ARHGEF12, Q9NZN5-2 = molecular target: ARHGEF12, Q9NZN5-2
DLG2_2, Q15700 = molecular target: DLG2_2, Q15700
DLG2_3, Q15700 = molecular target: DLG2_3, Q15700
DLG3_1, Q92796 = molecular target: T1, DLG3_1, Q92796
T1 sequence (Q92796 125-227, limits assumed, looked up): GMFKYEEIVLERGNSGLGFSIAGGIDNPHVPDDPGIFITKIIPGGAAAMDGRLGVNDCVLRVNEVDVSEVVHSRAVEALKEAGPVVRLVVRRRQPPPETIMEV

FRMPD2_1, Q68DX3 = molecular target: FRMPD2_1, Q68DX3
FRMPD2_1, Q68DX3, sequence (Q68DX3 770-861): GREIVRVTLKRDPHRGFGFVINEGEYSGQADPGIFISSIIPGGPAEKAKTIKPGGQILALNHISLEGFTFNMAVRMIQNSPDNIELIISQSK

GORASP2, Q9H8Y8 = molecular target: GORASP2, Q9H8Y8
GRIP2_3, Q9C0E4 = molecular target: GRIP2_3, Q9C0E4
GRIP2_3, Q9C0E4, sequence (Q9C0E4 238-339): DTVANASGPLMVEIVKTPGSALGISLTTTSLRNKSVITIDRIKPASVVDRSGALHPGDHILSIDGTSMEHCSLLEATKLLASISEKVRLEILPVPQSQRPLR

GRIP2_5, Q9C0E4 = molecular target: GRIP2_5, Q9C0E4
GRIP2_5, Q9C0E4, sequence (Q9C0E4 544-642): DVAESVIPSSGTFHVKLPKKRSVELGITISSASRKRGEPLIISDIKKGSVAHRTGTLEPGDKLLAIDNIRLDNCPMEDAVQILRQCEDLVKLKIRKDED

GRIP2_6, Q9C0E4 = molecular target: GRIP2_6, Q9C0E4
GRIP2_6, Q9C0E4, sequence (Q9C0E4 648-740): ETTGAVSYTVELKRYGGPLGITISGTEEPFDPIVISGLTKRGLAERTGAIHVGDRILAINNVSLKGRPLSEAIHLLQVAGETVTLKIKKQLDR

HTRA4, P83105 = molecular target: T2, HTRA4, P83105
T2 sequence (P83105 378-476, limits assumed, looked up): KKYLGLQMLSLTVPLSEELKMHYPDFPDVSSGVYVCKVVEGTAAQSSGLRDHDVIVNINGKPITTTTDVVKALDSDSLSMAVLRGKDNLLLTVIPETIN

Inadl_1, Q8NI35 = molecular target: Inadl_1, Q8NI35
Inadl_1, Q8NI35, sequence (Q8NI35 113-229): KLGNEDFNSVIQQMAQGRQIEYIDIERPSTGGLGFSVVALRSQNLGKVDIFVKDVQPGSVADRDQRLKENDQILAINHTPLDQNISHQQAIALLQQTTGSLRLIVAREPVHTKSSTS

LDB3, O75112 = molecular target: LDB3, O75112
LDB3, O75112, sequence (O75112 1-94): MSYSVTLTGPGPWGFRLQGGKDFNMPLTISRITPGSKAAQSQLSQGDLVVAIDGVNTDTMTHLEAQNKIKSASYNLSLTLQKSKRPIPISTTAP

LIN7B, Q9HAP6 = molecular target: T3, LIN7B, Q9HAP6
T3 sequence (Q9HAP6 88-185, limits assumed, looked up): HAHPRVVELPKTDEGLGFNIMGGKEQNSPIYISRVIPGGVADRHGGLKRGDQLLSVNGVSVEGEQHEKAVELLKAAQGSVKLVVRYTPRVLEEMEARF

LNX1_3, Q8TBB1 = molecular target: LNX1_3, Q8TBB1
LNX1_3, Q8TBB1, sequence (Q8TBB1 500-596): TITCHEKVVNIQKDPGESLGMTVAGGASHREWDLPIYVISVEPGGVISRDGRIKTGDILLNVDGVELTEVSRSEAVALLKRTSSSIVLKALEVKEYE

LRRC7, Q96NW7 = molecular target: T4, LRRC7, Q96NW7
T4 sequence (Q96NW7 1440-1537, limits assumed, looked up): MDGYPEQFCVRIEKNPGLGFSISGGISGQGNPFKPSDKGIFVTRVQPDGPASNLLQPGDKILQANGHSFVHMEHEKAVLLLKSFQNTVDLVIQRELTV

MAST2, Q6P0Q8 = molecular target: MAST2, Q6P0Q8
MAST2, Q6P0Q8, sequence (Q6P0Q8 1099-1202): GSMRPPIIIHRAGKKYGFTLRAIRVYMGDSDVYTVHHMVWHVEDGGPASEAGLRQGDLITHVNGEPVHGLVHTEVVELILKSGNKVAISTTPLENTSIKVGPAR

MPP2, Q14168 = molecular target: T5, MPP2, Q14168
T5 sequence (Q14168 180-250, limits assumed, looked up): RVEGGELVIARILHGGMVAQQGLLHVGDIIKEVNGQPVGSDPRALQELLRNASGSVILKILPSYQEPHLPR

MPP6, Q9NZW5 = molecular target: T6, MPP6, Q9NZW5
T6 sequence (Q9NZW5 125-219, limits assumed, looked up): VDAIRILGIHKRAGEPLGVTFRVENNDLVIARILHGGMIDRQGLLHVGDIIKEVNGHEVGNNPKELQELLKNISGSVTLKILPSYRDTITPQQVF

NHERF3_1, Q5T2W1 = molecular target: T7, NHERF3_1, Q5T2W1
T7 sequence (Q5T2W1 4-100, limits assumed, looked up): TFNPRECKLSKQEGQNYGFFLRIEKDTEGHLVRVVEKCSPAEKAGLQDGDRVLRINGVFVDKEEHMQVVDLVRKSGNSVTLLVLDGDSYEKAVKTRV

NHERF3_4, Q5T2W1 = molecular target: T8, NHERF3_4, Q5T2W1
T8 sequence (Q5T2W1 373-468, limits assumed, looked up): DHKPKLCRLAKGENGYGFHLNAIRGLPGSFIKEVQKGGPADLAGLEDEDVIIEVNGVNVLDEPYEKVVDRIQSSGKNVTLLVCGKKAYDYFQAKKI

PDLIM1, O00151 = molecular target: PDLIM1, O00151
PDLIM1, O00151, sequence (O00151 1-87): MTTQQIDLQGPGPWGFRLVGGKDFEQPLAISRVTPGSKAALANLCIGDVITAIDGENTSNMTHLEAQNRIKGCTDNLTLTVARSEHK

PDZRN3_1, Q9UPQ7 = molecular target: T9, PDZRN3_1, Q9UPQ7
T9 sequence (Q9UPQ7 244-349, limits assumed, looked up): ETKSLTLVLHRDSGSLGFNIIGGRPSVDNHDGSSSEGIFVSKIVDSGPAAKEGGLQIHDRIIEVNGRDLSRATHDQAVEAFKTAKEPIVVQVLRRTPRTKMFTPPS

SCRIB_2, Q14160 = molecular target: SCRIB_2, Q14160
SCRIB_2, Q14160, sequence (Q14160 857-960): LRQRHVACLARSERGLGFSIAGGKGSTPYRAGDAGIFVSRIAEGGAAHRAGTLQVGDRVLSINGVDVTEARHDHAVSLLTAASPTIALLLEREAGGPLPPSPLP

SNTB1, Q13884 = molecular target: T10, SNTB1, Q13884
T10 sequence (Q13884 107-205, limits assumed, looked up): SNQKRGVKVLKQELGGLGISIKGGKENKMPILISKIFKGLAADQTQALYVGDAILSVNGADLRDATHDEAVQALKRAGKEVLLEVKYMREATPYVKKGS

TJP1_2, Q07157 = molecular target: TJP1_2, Q07157
TJP1_2, Q07157, sequence (Q07157 181-274): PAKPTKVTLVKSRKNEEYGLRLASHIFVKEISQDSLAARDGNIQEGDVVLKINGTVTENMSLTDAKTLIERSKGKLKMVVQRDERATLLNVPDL

TX1BP3, O14907 = molecular target: T11, TX1BP3, O14907
T11 sequence (O14907 10-122, limits assumed, looked up): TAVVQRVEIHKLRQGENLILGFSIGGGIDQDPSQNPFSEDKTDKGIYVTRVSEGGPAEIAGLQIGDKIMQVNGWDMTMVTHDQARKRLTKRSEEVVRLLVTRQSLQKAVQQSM

[1] = plain residues with an end cap or a label only (N-terminal biotin on a linker: ttds)
[2] = plain residues with an end cap or a label only (N-terminal biotin on a linker: ahx)

ARHGEF12, Q9NZN5-2, sequence (Q9NZN5 other isoform, or with tags, fused parts or gaps): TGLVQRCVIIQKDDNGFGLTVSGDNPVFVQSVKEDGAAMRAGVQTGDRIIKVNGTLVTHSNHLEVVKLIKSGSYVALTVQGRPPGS

Question: How did the pKd (ARHGEF12, Q9NZN5-2; [1]) turn out when CLDTSRETDL [KCNA5, P22460] was run?
Answer: 4.32

Question: What about the pKd (DLG2_2, Q15700; [1]) of the same binder?
Answer: 4.19

Question: What about the pKd (DLG2_3, Q15700; [1]) of the same binder?
Answer: below the threshold

Question: What about the pKd (DLG3_1, Q92796; [1]) of the same binder?
Answer: 3.49

Question: What about the pKd (FRMPD2_1, Q68DX3; [1]) of the same binder?
Answer: below the threshold

Question: And the pKd (GORASP2, Q9H8Y8; [1])?
Answer: 3.58

Question: What about the pKd (GRIP2_3, Q9C0E4; [1]) of the same binder?
Answer: below the threshold

Question: And the pKd (GRIP2_5, Q9C0E4; [1])?
Answer: below the threshold

Question: And the pKd (GRIP2_6, Q9C0E4; [1])?
Answer: 3.54

Question: And the pKd (HTRA4, P83105; [1])?
Answer: below the threshold

Question: And the pKd (Inadl_1, Q8NI35; [1])?
Answer: below the threshold

Question: What about the pKd (LDB3, O75112; [1]) of the same binder?
Answer: below the threshold

Question: And the pKd (LIN7B, Q9HAP6; [1])?
Answer: below the threshold

Question: What about the pKd (LNX1_3, Q8TBB1; [1]) of the same binder?
Answer: below the threshold

Question: And the pKd (LRRC7, Q96NW7; [1])?
Answer: 3.68

Question: What about the pKd (MAST2, Q6P0Q8; [1]) of the same binder?
Answer: 5.52

Question: And the pKd (MPP2, Q14168; [1])?
Answer: below the threshold

Question: And the pKd (MPP6, Q9NZW5; [1])?
Answer: below the threshold

Question: What about the pKd (NHERF3_1, Q5T2W1; [1]) of the same binder?
Answer: 4.43

Question: And the pKd (NHERF3_4, Q5T2W1; [1])?
Answer: below the threshold

Question: What about the pKd (PDLIM1, O00151; [1]) of the same binder?
Answer: 4.29

Question: And the pKd (PDZRN3_1, Q9UPQ7; [1])?
Answer: 4.38

Question: And the pKd (SCRIB_2, Q14160; [1])?
Answer: 4.35

Question: And the pKd (SNTB1, Q13884; [1])?
Answer: 5.51

Question: And the pKd (TJP1_2, Q07157; [1])?
Answer: below the threshold

Question: What about the pKd (TX1BP3, O14907; [1]) of the same binder?
Answer: 4.28

Question: Which results are given for KKNKDKEYYV [NRXN1, Q9ULB1]?
Answer: pKd (ARHGEF12, Q9NZN5-2; [2]): below the threshold; pKd (DLG2_2, Q15700; [2]): below the threshold; pKd (DLG2_3, Q15700; [2]): below the threshold; pKd (DLG3_1, Q92796; [2]): below the threshold; pKd (FRMPD2_1, Q68DX3; [2]): below the threshold; pKd (GORASP2, Q9H8Y8; [2]): 4.33; pKd (GRIP2_3, Q9C0E4; [2]): below the threshold; pKd (GRIP2_5, Q9C0E4; [2]): below the threshold; pKd (GRIP2_6, Q9C0E4; [2]): 3.91; pKd (HTRA4, P83105; [2]): below the threshold; pKd (Inadl_1, Q8NI35; [2]): below the threshold; pKd (LDB3, O75112; [2]): below the threshold; pKd (LIN7B, Q9HAP6; [2]): below the threshold; pKd (LNX1_3, Q8TBB1; [2]): below the threshold; pKd (LRRC7, Q96NW7; [2]): below the threshold; pKd (MAST2, Q6P0Q8; [2]): below the threshold; pKd (MPP2, Q14168; [2]): 3.69; pKd (MPP6, Q9NZW5; [2]): below the threshold; pKd (NHERF3_1, Q5T2W1; [2]): 3.84; pKd (NHERF3_4, Q5T2W1; [2]): below the threshold; pKd (PDLIM1, O00151; [2]): below the threshold; pKd (PDZRN3_1, Q9UPQ7; [2]): below the threshold; pKd (SCRIB_2, Q14160; [2]): below the threshold; pKd (SNTB1, Q13884; [2]): below the threshold; pKd (TJP1_2, Q07157; [2]): below the threshold; pKd (TX1BP3, O14907; [2]): below the threshold

Question: Which pKd (ARHGEF12, Q9NZN5-2; [1]) does the source give for RRVRKLPSTTL [RPS6KA1, Q15418] here?
Answer: 5.45

Question: What about the pKd (DLG2_2, Q15700; [1]) of the same binder?
Answer: below the threshold

Question: And the pKd (DLG2_3, Q15700; [1])?
Answer: 3.49

Question: What about the pKd (DLG3_1, Q92796; [1]) of the same binder?
Answer: below the threshold

Question: And the pKd (FRMPD2_1, Q68DX3; [1])?
Answer: below the threshold

Question: And the pKd (GORASP2, Q9H8Y8; [1])?
Answer: 3.59

Question: And the pKd (GRIP2_3, Q9C0E4; [1])?
Answer: below the threshold

Question: What about the pKd (GRIP2_5, Q9C0E4; [1]) of the same binder?
Answer: below the threshold

Question: And the pKd (GRIP2_6, Q9C0E4; [1])?
Answer: below the threshold

Question: And the pKd (HTRA4, P83105; [1])?
Answer: 3.71

Question: And the pKd (Inadl_1, Q8NI35; [1])?
Answer: below the threshold

Question: And the pKd (LDB3, O75112; [1])?
Answer: below the threshold

Question: What about the pKd (LIN7B, Q9HAP6; [1]) of the same binder?
Answer: below the threshold

Question: What about the pKd (LNX1_3, Q8TBB1; [1]) of the same binder?
Answer: 3.66

Question: And the pKd (LRRC7, Q96NW7; [1])?
Answer: 3.55

Question: And the pKd (MAST2, Q6P0Q8; [1])?
Answer: 5.37

Question: What about the pKd (MPP2, Q14168; [1]) of the same binder?
Answer: below the threshold

Question: What about the pKd (MPP6, Q9NZW5; [1]) of the same binder?
Answer: 3.73

Question: And the pKd (NHERF3_1, Q5T2W1; [1])?
Answer: 4.03

Question: What about the pKd (NHERF3_4, Q5T2W1; [1]) of the same binder?
Answer: 3.65

Question: What about the pKd (PDLIM1, O00151; [1]) of the same binder?
Answer: 3.49

Question: And the pKd (PDZRN3_1, Q9UPQ7; [1])?
Answer: 3.75

Question: And the pKd (SCRIB_2, Q14160; [1])?
Answer: below the threshold

Question: And the pKd (SNTB1, Q13884; [1])?
Answer: 4.14

Question: What about the pKd (TJP1_2, Q07157; [1]) of the same binder?
Answer: 3.51

Question: What about the pKd (TX1BP3, O14907; [1]) of the same binder?
Answer: below the threshold
